US20020160516A1, “Episomal expression vector for human gene therapy and expression system for production of proteins” (priority 1993, published 2002)
Converted amounts (≈) assume the structure as drawn.

Columns and labels:
[1] = tested on: 107/402-T expression in HT-1376 tet-off clone; experiment: Doxycycline control of 107/402-T expression in HT-1376 tet-off clone (Western blot); assay type: cell-based; settings: Homo sapiens, 96 h, Western blot 4 days after exposure, read-out: half-maximal inhibitory concentration for 107/402-T expression
Description: To prepare a human cell line in which expression of 107/402-T would be under control of doxycycline, HT-1376 human bladder carcinoma cells were sequentially transfected with three plasmid constructs: (a) pTET-OFF, which encodes the tetracycline-controlled transcriptional transactivator (tTA) under control of the CMV immediate-early promoter and the neomycin resistance gene under control of the SV40 early promoter, (b) pTRE.107/402-T, which encodes 107/402-T under control of the CMV minimal promoter and contains the tetracycline operon (binding site of tTA just upstream of the CMV minimal promoter), and (c) pCMVhygro, which encodes the hygromycin resistance gene under control of the CMV promoter. HT-1376 cells were first transfected with pTET-OFF, and neomycin resistant clones of stable transfectants were characterized by transiently transfecting clones with pTRE.luciferase in the presence or absence of doxycycline. Clones which yielded significant luciferase activity only in the absence of doxycycline (but no detectable luciferase activity in the presence of doxycycline) were then co-transfected with pTRE.107/402-T and pCMVhygro. Again, single cell clones of stable transfectants were screened for high basal levels of 107/402-T and complete turn-off of 107/402-T expression in the presence of doxycycline.
Steady-state levels of 107/402-T are achieved by 3 days. […]

human RB = target: T1, human RB (Homo sapiens, UniProt P06400); assay type: binding
T1 sequence (P06400 1-928): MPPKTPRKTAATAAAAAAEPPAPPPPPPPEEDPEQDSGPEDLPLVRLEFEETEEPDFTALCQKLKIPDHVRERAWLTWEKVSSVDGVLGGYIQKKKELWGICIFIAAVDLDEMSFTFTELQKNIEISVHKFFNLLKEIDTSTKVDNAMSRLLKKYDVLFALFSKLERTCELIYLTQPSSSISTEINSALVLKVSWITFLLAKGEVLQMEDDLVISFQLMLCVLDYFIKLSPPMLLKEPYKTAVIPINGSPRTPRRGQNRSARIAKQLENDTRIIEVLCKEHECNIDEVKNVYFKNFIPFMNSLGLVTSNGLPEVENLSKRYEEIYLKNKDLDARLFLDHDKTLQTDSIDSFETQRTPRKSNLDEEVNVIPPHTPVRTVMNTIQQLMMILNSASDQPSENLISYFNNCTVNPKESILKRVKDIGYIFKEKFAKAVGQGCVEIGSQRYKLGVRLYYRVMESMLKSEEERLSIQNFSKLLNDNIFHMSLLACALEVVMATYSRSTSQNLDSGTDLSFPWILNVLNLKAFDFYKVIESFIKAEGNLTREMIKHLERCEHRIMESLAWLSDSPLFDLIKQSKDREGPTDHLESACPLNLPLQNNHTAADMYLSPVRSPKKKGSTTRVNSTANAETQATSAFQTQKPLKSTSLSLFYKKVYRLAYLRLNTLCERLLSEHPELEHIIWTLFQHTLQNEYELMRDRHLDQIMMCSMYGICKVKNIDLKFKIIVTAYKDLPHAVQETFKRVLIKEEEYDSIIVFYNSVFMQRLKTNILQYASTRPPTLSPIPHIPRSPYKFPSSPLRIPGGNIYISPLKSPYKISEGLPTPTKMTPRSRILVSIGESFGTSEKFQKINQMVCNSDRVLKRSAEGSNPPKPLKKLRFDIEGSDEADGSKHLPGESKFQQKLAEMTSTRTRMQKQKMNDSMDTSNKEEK

p107 = target: T2, p107 (Homo sapiens, UniProt P28749); assay type: binding
T2 sequence (P28749 1-1068): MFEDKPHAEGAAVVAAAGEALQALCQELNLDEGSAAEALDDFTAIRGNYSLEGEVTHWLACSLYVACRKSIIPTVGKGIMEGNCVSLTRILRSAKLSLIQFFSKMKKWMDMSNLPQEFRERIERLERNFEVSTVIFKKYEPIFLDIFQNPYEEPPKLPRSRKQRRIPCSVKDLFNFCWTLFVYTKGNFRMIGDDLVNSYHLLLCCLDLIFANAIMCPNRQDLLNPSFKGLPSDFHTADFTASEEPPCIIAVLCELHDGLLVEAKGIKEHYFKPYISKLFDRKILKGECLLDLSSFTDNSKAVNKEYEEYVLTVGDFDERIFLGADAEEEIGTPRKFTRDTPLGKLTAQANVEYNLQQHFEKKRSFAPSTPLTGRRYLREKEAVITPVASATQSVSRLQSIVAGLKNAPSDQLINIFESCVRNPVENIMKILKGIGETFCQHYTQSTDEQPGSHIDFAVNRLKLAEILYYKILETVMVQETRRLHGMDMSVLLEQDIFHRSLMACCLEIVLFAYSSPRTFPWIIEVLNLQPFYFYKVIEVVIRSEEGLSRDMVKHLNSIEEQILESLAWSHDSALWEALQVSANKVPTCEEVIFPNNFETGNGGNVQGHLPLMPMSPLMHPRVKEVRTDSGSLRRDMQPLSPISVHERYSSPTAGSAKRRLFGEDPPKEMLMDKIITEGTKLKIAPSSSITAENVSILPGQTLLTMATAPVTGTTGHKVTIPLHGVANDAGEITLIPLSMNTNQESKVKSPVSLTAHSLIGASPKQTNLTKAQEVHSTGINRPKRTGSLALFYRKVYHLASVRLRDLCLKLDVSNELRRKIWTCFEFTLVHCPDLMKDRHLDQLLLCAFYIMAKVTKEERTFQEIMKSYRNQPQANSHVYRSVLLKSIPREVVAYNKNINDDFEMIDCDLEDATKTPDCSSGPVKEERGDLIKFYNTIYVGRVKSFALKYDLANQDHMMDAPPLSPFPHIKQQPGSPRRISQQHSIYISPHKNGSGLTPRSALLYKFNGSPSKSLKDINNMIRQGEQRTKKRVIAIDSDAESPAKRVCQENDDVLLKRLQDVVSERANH

p53 = p53 (Homo sapiens, UniProt P04637); assay type: binding
p53, sequence (P04637 whole entry): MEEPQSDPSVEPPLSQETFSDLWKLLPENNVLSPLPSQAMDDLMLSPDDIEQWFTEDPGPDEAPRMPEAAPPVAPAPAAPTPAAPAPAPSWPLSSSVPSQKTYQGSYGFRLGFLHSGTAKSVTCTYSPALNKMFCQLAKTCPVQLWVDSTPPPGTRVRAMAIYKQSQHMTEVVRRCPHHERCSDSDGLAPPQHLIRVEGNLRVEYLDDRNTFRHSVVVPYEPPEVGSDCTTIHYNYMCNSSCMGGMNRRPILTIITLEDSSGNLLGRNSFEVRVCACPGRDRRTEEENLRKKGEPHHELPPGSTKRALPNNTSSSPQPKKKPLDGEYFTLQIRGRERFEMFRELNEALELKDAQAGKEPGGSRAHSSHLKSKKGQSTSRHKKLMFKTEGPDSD

T24 cell line = experiment: Soft agar cloning of T24 clones expressing T antigens; settings: T24 single cell clones expressing T antigen (SV-T clone A7, 402-T clone G1); ± se
Description: Transformed cells were trypsinized and then passed through a 30-micron nylon filter (Tetko, Lancaster, N.Y.) to achieve a single cell suspension. The bottom layer of agar consisted of low glucose DMEM supplemented with 10% fetal calf serum and 0.6% Seaplaque agarose (FMC BioProducts, Rockland, Me.). The top layer contained serial dilutions of cells ranging between 10^3 and 10^6 in low-glucose DMEM supplemented with 10% fetal calf serum and 0.3% Seaplaque agarose.

Molecule: C[C@H]1c2cccc(O)c2C(=O)C2=C(O)[C@]3(O)C(=O)C(C(N)=O)=C(O)[C@@H](N(C)C)[C@@H]3[C@@H](O)[C@@H]21 [doxycycline]
- IC50 [1]: ~0.01 ng/mL (≈ 0.0225 nM)

B1: SV-T: wild-type SV40 large T antigen (protein, UniProt P03070 1-708, looked up)
Large T antigen: MDKVLNREESLQLMDLLGLERSAWGNIPLMRKAYLKKCKEFHPDKGGDEEKMKKMNTLYKKMEDGVKYAHQPDFGGFWDATEIPTYGTDEWEQWWNAFNEENLFCSEEMPSSDDEATADSQHSTPPKKKRKVEDPKDFPSELLSFLSHAVFSNRTLACFAIYTTKEKAALLYKKIMEKYSVTFISRHNSYNHNILFFLTPHRHRVSAINNYAQKLCTFSFLICKGVNKEYLMYSALTRDPFSVIEESLPGGLKEHDFNPEEAEETKQVSWKLVTEYAMETKCDDVLLLLGMYLEFQYSFEMCLKCIKKEQPSHYKYHEKHYANAAIFADSKNQKTICQQAVDTVLAKKRVDSLQLTREQMLTNRFNDLLDRMDIMFGSTGSADIEEWMAGVAWLHCLLPKMDSVVYDFLKCMVYNIPKKRYWLFKGPIDSGKTTLAAALLELCGGKALNVNLPLDRLNFELGVAIDQFLVVFEDVKGTGGESRDLPSGQGINNLDNLRDYLDGSVKVNLEKKHLNKRTQIFPPGIVTMNEYSVPKTLQARFVKQIDFRPKDYLKHCLERSEFLLEKRIIQSGIALLLMLIWYRPVAEFAQSIQSRIVEWKERLDKEFSLSVYQKMKFNVAMGIGVLDWLRNSDDDDEDSQENADKNEDGGEKNMEDSGHETGIDSQSQGSFQAPQSSQSVHDHNQPYHICRGFTCFKKPPTPPPEPET
- Observed signal compared to T, binding to RB (human RB): 100%
- Observed signal compared to T, binding to p107 (p107): 100%
- Observed signal compared to T, binding to p53 (p53): 100%
- soft agar cloning efficiency (T24 cell line): 0.10%±0.02%
